Measured values taken from paper PMC13167773, “Chiral inversion mutagenesis identifies geometrically constrained residues within self-associating low-complexity domains” (Proceedings of the National Academy of Sciences of the …, 2026).

T1: wild-type glutathione S-transferase (GST)-EMD LCD fusion protein
T1 sequence (P50402 whole entry, species assumed, looked up): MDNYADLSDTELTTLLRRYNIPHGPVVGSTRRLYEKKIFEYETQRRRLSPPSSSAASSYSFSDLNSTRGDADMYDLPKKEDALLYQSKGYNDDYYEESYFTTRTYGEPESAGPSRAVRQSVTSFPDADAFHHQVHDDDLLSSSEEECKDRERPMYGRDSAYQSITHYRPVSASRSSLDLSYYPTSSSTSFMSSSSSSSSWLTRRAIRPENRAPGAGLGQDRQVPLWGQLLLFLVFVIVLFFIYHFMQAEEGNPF


Target: the molecule itself
Test: turbidity (absorbance at 395 nm); synthetic NEFL head domain 5×D library, 100 μM LCD, A395, n = 3
Conditions: not given

Molecule	binding result
synthetic NEFL head domain (residues 2 to 74), WT (domain or fragment, UniProt P07196 2-74, looked up, neurofilament light chain (NEFL) head domain residues 2 to 74, ligation junction cysteine S31C and D72E; also called WT head domain; NEFL LCD; source: fully synthetic: NEFL-P1 (2 to 30, MesNa thioester) ligated to NEFL-P2 (31 to 74) by native chemical ligation; RP-HPLC purified) SSFSYEPYYSTSYKRRYVETPRVHISSVRCGYSTARSAYSSYSAPVSSSLSVRRSYSSSSGSLMPSLENLELS	binds

Target: T1, wild-type glutathione S-transferase (GST)-EMD LCD fusion protein
Test: pull-down; WT GST-EMD LCD immobilized on glutathione resin, incubated with HA-tagged EMD LCD prey (50 nM), washed with binding buffer, eluted with GSH; anti-HA Western blot of eluent relative to input, densitometry, n = 3
Conditions: not given

fold reduction of pulldown relative to WT [fold]	Molecule
5.9	HA-tagged EMD LCD 3×Pro_(193-196) (domain or fragment)
2.2	HA-tagged EMD LCD 3×Pro_(183-186) (domain or fragment)
5	HA-tagged EMD LCD 3×Pro_(188-191) (domain or fragment)
3.4	HA-tagged EMD LCD 3×Pro_(198-201) (domain or fragment)

Tested on: not listed separately
Test: turbidity (absorbance at 395 nm); untagged recombinant EMD LCD 3×Pro library, 60 μM LCD, transfer from denaturing to native Tris buffer, n = 3; self-association read as precipitation
Conditions: other: turbidity (absorbance at 395 nm)

Molecule	fold reduction of turbidity relative to WT
untagged EMD LCD 3×Pro_(198-201)	34.7 fold
untagged EMD LCD 3×Pro_(203-206)	14.3-fold
untagged EMD LCD 3×Pro_(183-186)	modestly reduces turbidity by 2.8-fold relative to WT
untagged EMD LCD 3×Pro_(188-191)	108 fold
untagged EMD LCD 3×Pro_(193-196)	16.6 fold

Target: the molecule itself
Test: turbidity (absorbance at 395 nm); untagged semisynthetic EMD LCD ChIM library, 50 μM LCD, rapid dilution from strong denaturant into physiological buffer, n = 3
Conditions: not given

Molecule	binding result
untagged semisynthetic EMD LCD (residues 46 to 221), all-L-WT (domain or fragment, UniProt P50402 46-221, looked up, Emerin (EMD) LCD residues 46 to 221, S189C and D220E; Rink amide resin implies a C-terminal amide (surmised); also called WT variant; source: RP-HPLC purified) RRLSPPSSSAASSYSFSDLNSTRGDADMYDLPKKEDALLYQSKGYNDDYYEESYFTTRTYGEPESAGPSRAVRQSVTSFPDADAFHHQVHDDDLLSSSEEECKDRERPMYGRDSAYQSITHYRPVSASRSSLDLSYYPTSSSTCFMSSSSSSSSWLTRRAIRPENRAPGAGLGQER	binds

Target: P50402
Test: as above
Conditions: other: turbidity (absorbance at 395 nm)

Molecule	fold decrease in turbidity	fold decrease in turbidity relative to WT
untagged semisynthetic EMD LCD 3×D_(191-195) (protein) RRLSPPSSSAASSYSFSDLNSTRGDADMYDLPKKEDALLYQSKGYNDDYYEESYFTTRTYGEPESAGPSRAVRQSVTSFPDADAFHHQVHDDDLLSSSEEECKDRERPMYGRDSAYQSITHYRPVSASRSSLDLSYYPTSSSTCFMSSSSSSSSWLTRRAIRPENRAPGAGLGQER	13.3 fold	–
untagged semisynthetic EMD LCD 3×D_(199-203) (protein) RRLSPPSSSAASSYSFSDLNSTRGDADMYDLPKKEDALLYQSKGYNDDYYEESYFTTRTYGEPESAGPSRAVRQSVTSFPDADAFHHQVHDDDLLSSSEEECKDRERPMYGRDSAYQSITHYRPVSASRSSLDLSYYPTSSSTCFMSSSSSSSSWLTRRAIRPENRAPGAGLGQER	2.1-fold	–
semisynthetic EMD LCD with a central 1×D inversion within the 3×D_(191-195) variant (protein) RRLSPPSSSAASSYSFSDLNSTRGDADMYDLPKKEDALLYQSKGYNDDYYEESYFTTRTYGEPESAGPSRAVRQSVTSFPDADAFHHQVHDDDLLSSSEEECKDRERPMYGRDSAYQSITHYRPVSASRSSLDLSYYPTSSSTCFMSSSSSSSSWLTRRAIRPENRAPGAGLGQER	–	a 6.4-fold decrease in turbidity relative to WT
untagged semisynthetic EMD LCD 3×D_(195-199) (protein) RRLSPPSSSAASSYSFSDLNSTRGDADMYDLPKKEDALLYQSKGYNDDYYEESYFTTRTYGEPESAGPSRAVRQSVTSFPDADAFHHQVHDDDLLSSSEEECKDRERPMYGRDSAYQSITHYRPVSASRSSLDLSYYPTSSSTCFMSSSSSSSSWLTRRAIRPENRAPGAGLGQER	2.8 fold	–
untagged semisynthetic EMD LCD 3×D_(203-207) (protein) RRLSPPSSSAASSYSFSDLNSTRGDADMYDLPKKEDALLYQSKGYNDDYYEESYFTTRTYGEPESAGPSRAVRQSVTSFPDADAFHHQVHDDDLLSSSEEECKDRERPMYGRDSAYQSITHYRPVSASRSSLDLSYYPTSSSTCFMSSSSSSSSWLTRRAIRPENRAPGAGLGQER	a modest 1.4-fold decrease in turbidity	–

Target: P07196
Test: turbidity (absorbance at 395 nm); synthetic NEFL head domain 5×D library, 100 μM LCD, A395, n = 3
Conditions: other: turbidity (absorbance at 395 nm)

Molecule	fold decrease in turbidity relative to WT
synthetic NEFL head domain 5×D_(22-30) (protein) SSFSYEPYYSTSYKRRYVETPRVHISSVRCGYSTARSAYSSYSAPVSSSLSVRRSYSSSSGSLMPSLENLELS	9.1-fold
synthetic NEFL head domain 5×D_(43-51) (protein) SSFSYEPYYSTSYKRRYVETPRVHISSVRCGYSTARSAYSSYSAPVSSSLSVRRSYSSSSGSLMPSLENLELS	2.7-fold
synthetic NEFL head domain 5×D_(63-71) (protein) SSFSYEPYYSTSYKRRYVETPRVHISSVRCGYSTARSAYSSYSAPVSSSLSVRRSYSSSSGSLMPSLENLELS	1 fold
synthetic NEFL head domain 5×D_(53-63) (protein) SSFSYEPYYSTSYKRRYVETPRVHISSVRCGYSTARSAYSSYSAPVSSSLSVRRSYSSSSGSLMPSLENLELS	1.6-fold
synthetic NEFL head domain 5×D_(33-41) (protein) SSFSYEPYYSTSYKRRYVETPRVHISSVRCGYSTARSAYSSYSAPVSSSLSVRRSYSSSSGSLMPSLENLELS	20-fold

Target: T1, wild-type glutathione S-transferase (GST)-EMD LCD fusion protein
Test: pull-down; WT GST-EMD LCD immobilized on glutathione resin, incubated with HA-tagged EMD LCD prey (50 nM), washed with binding buffer, eluted with GSH; anti-HA Western blot of eluent relative to input, densitometry, n = 3
Conditions: not given
Remark: another data set of the same source

fold reduction of pulldown relative to WT [fold]	fold difference of pulldown from WT [fold]	Molecule
8.8	–	HA-tagged semisynthetic EMD LCD 3×D_(191-195) (domain or fragment, three D-amino acids at alternating positions, 3×D_(191-195)) RRLSPPSSSAASSYSFSDLNSTRGDADMYDLPKKEDALLYQSKGYNDDYYEESYFTTRTYGEPESAGPSRAVRQSVTSFPDADAFHHQVHDDDLLSSSEEECKDRERPMYGRDSAYQSITHYRPVSASRSSLDLSYYPTSSSTCFMSSSSSSSSWLTRRAIRPENRAPGAGLGQER
–	1.7	HA-tagged semisynthetic EMD LCD 3×D_(211-215) (domain or fragment, three D-amino acids at alternating positions, 3×D_(211-215)) RRLSPPSSSAASSYSFSDLNSTRGDADMYDLPKKEDALLYQSKGYNDDYYEESYFTTRTYGEPESAGPSRAVRQSVTSFPDADAFHHQVHDDDLLSSSEEECKDRERPMYGRDSAYQSITHYRPVSASRSSLDLSYYPTSSSTCFMSSSSSSSSWLTRRAIRPENRAPGAGLGQER
3.6	–	HA-tagged semisynthetic EMD LCD 3×D_(203-207) (domain or fragment, three D-amino acids at alternating positions, 3×D_(203-207)) RRLSPPSSSAASSYSFSDLNSTRGDADMYDLPKKEDALLYQSKGYNDDYYEESYFTTRTYGEPESAGPSRAVRQSVTSFPDADAFHHQVHDDDLLSSSEEECKDRERPMYGRDSAYQSITHYRPVSASRSSLDLSYYPTSSSTCFMSSSSSSSSWLTRRAIRPENRAPGAGLGQER
7.9	–	HA-tagged semisynthetic EMD LCD 3×D_(195-199) (domain or fragment, three D-amino acids at alternating positions, 3×D_(195-199)) RRLSPPSSSAASSYSFSDLNSTRGDADMYDLPKKEDALLYQSKGYNDDYYEESYFTTRTYGEPESAGPSRAVRQSVTSFPDADAFHHQVHDDDLLSSSEEECKDRERPMYGRDSAYQSITHYRPVSASRSSLDLSYYPTSSSTCFMSSSSSSSSWLTRRAIRPENRAPGAGLGQER
6.2	–	HA-tagged semisynthetic EMD LCD 3×D_(199-203) (domain or fragment, three D-amino acids at alternating positions, 3×D_(199-203)) RRLSPPSSSAASSYSFSDLNSTRGDADMYDLPKKEDALLYQSKGYNDDYYEESYFTTRTYGEPESAGPSRAVRQSVTSFPDADAFHHQVHDDDLLSSSEEECKDRERPMYGRDSAYQSITHYRPVSASRSSLDLSYYPTSSSTCFMSSSSSSSSWLTRRAIRPENRAPGAGLGQER
–	1.8	HA-tagged semisynthetic EMD LCD 3×D_(207-211) (domain or fragment, three D-amino acids at alternating positions, 3×D_(207-211)) RRLSPPSSSAASSYSFSDLNSTRGDADMYDLPKKEDALLYQSKGYNDDYYEESYFTTRTYGEPESAGPSRAVRQSVTSFPDADAFHHQVHDDDLLSSSEEECKDRERPMYGRDSAYQSITHYRPVSASRSSLDLSYYPTSSSTCFMSSSSSSSSWLTRRAIRPENRAPGAGLGQER
